Among the targets are HIV-1 CAP45 Env (HIV-1); HIV-1 TR0.11 Env (HIV-1); HIV-1 Du172 Env (HIV-1); HIV-1 ADA Env (HIV-1); HIV-1 DU156 Env (HIV-1); HIV-1 ZM233 Env (HIV-1); HIV-1 CAAN Env (HIV-1); HIV-1 ZM249 Env (HIV-1); HIV-1 ZM214 Env (HIV-1); HIV-1 PVO.4 Env (HIV-1); HIV-1 DU422 Env (HIV-1); HIV-1 AC10 Env (HIV-1).
Holding throughout (test): cell-based or functional assay
Experiment [1] deals with MuLV envelope (control pseudovirus).
Experiment [2] deals with HIV-1 JR-CSF Env I309A (HIV-1) (UniProt P20871).
Experiment [3] deals with HIV-1 JR-CSF Env Y318A (HIV-1) (UniProt P20871).
The target in experiment [4] is HIV-1 THRO.18 Env (HIV-1).
The target of experiment [5] is HIV-1 JR-FL Env E168K (HIV-1).
Experiment [6] concerns the target HIV-1 JR-CSF Env (wild-type) (HIV-1) (UniProt P20871).
For experiment [7], the target named is HIV-1 92RW020 Env (HIV-1).
In experiment [8] the target is HIV-1 REJ04541 Env (HIV-1).

B1: 1503_H05 (PG16) (TCN-119) (antibody, V domains shown)
VH: QEKLVESGGGVVQPGGSLRLSCLASGFTFHKYGMHWVRQAPGKGLEWVALISDDGMRKYHSDSMWGRVTISRDNSKNTLYLQFSSLKVEDTAMFFCAREAGGPIWHDDVKYYDFNDGYYNYHYMDVWGKGTIVTVSS
VL: QSALTQPASVSGSPGQTITISCNGTRSDVGGFDSVSWYQQSPGKAPKVMVFDVSHRPSGISNRFSGSKSGNTASLTISGLHIEDEGDYFCSSLTDRSHRIFGGGTKVTVLG
As to B1, the IC50, TZM-bl pseudovirus neutralization in experiment [1] was more than 25 µg/mL; in the experiment with HIV-1 CAP45 Env (HIV-1) it was less than 0.01 µg/mL; in experiment [2], more than 1 µg/mL; with HIV-1 TR0.11 Env (HIV-1), 4.3 µg/mL; with HIV-1 Du172 Env (HIV-1), less than 0.01 µg/mL; in [3], more than 1 µg/mL. Moreover, the IC50, TZM-bl pseudovirus neutralization in the experiment with HIV-1 ADA Env (HIV-1) was 3 ng/mL; with HIV-1 DU156 Env (HIV-1), less than 0.01 µg/mL; with HIV-1 ZM233 Env (HIV-1), less than 0.01 µg/mL; with HIV-1 CAAN Env (HIV-1) it was 13.5 µg/mL; in the experiment with HIV-1 ZM249 Env (HIV-1), less than 0.01 µg/mL; with HIV-1 ZM214 Env (HIV-1) it was more than 25 µg/mL. The IC50, TZM-bl pseudovirus neutralization in [4] came to 4.12 µg/mL; in experiment [5], 2 ng/mL; with HIV-1 PVO.4 Env (HIV-1) it was 11 µg/mL; in [6], 1 ng/mL; in experiment [7], 0.02 µg/mL; in the experiment with HIV-1 DU422 Env (HIV-1), 0.71 µg/mL. Further, the IC50, TZM-bl pseudovirus neutralization in [8] is 0.22 µg/mL; with HIV-1 AC10 Env (HIV-1), less than 0.01 µg/mL.

B2: 1489_I13 (PG16) (TCN-120) (antibody, V domains shown)
VH: QEQLLESGGGVVQPGGSLRLSCLASGFTFHKYGMHWVRQAPGKGLEWVALISDDGMRKYHSNSMWGRVTISRDNSKNTLYLQFSSLKVEDTAMFFCAREAGGPIWHDDVKYYDFNDGYYNYHYMDVWGKGTTVTVSS
VL: QSALTQPASVSGSPGQTITISCNGTSSDVGGFDSVSWYQQSPGKAPKVMVFDVSHRPSGISNRFSGSKSGNTASLTISGLHIEDEGDYFCSSLTDRSHRIFGGGTKVTVLG
As to B2, the IC50, TZM-bl pseudovirus neutralization was more than 25 µg/mL in [1]; less than 0.01 µg/mL with HIV-1 CAP45 Env (HIV-1); more than 1 µg/mL in experiment [2]; 10.9 µg/mL with HIV-1 TR0.11 Env (HIV-1); less than 0.01 µg/mL with HIV-1 Du172 Env (HIV-1); more than 1 µg/mL in experiment [3]. The IC50, TZM-bl pseudovirus neutralization in the experiment with HIV-1 ADA Env (HIV-1) was 8 ng/mL; with HIV-1 DU156 Env (HIV-1), less than 0.01 µg/mL; with HIV-1 ZM233 Env (HIV-1), less than 0.01 µg/mL; with HIV-1 CAAN Env (HIV-1), 24.9 µg/mL; with HIV-1 ZM249 Env (HIV-1), less than 0.01 µg/mL; in the experiment with HIV-1 ZM214 Env (HIV-1) it was more than 25 µg/mL. Besides, the IC50, TZM-bl pseudovirus neutralization in experiment [4] amounted to 7.41 µg/mL; in [5] it was 5 ng/mL; in the experiment with HIV-1 PVO.4 Env (HIV-1), 20.6 µg/mL; in experiment [6], 2 ng/mL; in [7] it was 0.03 µg/mL; in the experiment with HIV-1 DU422 Env (HIV-1) it was 1.87 µg/mL. Further, the IC50, TZM-bl pseudovirus neutralization was 0.34 µg/mL in experiment [8] and less than 0.01 µg/mL in the experiment with HIV-1 AC10 Env (HIV-1).

B3: 1469_M23 (PG16) (TCN-118) (antibody, V domains shown)
VH: QEKLVESGGGVVQPGGSLRLSCLASGFTFHKYGMHWVRQAPGKGLEWVALISDDGMRKYHSDSMWGRVTISRDNSKNTLYLQFSSLKVEDTAMFFCAREAGGPIWHDDVKYYDFNDGYYNYHYMDVWGKGTTVTVSS
VL: QSALTQPASVSGSPGQTITISCNGTRSDVGGFDSVSWYQQSPGRAPKVMVFDVSHRPSGISNRFSGSKSGNTASLTISGLHIEDEGDYFCSSLTDRSHRIFGGGTKLTVLG
B3: the IC50, TZM-bl pseudovirus neutralization is more than 25 µg/mL in experiment [1]; less than 0.01 µg/mL with HIV-1 CAP45 Env (HIV-1); more than 1 µg/mL in experiment [2]; 7.52 µg/mL in the experiment with HIV-1 TR0.11 Env (HIV-1); less than 0.01 µg/mL with HIV-1 Du172 Env (HIV-1); more than 1 µg/mL in [3]. Besides, the IC50, TZM-bl pseudovirus neutralization was 5 ng/mL with HIV-1 ADA Env (HIV-1); less than 0.01 µg/mL with HIV-1 DU156 Env (HIV-1); less than 0.01 µg/mL with HIV-1 ZM233 Env (HIV-1); 17.7 µg/mL with HIV-1 CAAN Env (HIV-1); less than 0.01 µg/mL with HIV-1 ZM249 Env (HIV-1); more than 25 µg/mL with HIV-1 ZM214 Env (HIV-1). The IC50, TZM-bl pseudovirus neutralization stood at 7.01 µg/mL in experiment [4]; 5 ng/mL in experiment [5]; 21.2 µg/mL in the experiment with HIV-1 PVO.4 Env (HIV-1); 2 ng/mL in [6]; 0.05 µg/mL in experiment [7]; 0.97 µg/mL with HIV-1 DU422 Env (HIV-1). The IC50, TZM-bl pseudovirus neutralization in experiment [8] was 0.39 µg/mL; with HIV-1 AC10 Env (HIV-1) it was less than 0.01 µg/mL.

B4: 1456_A12 (PG16) (TCN-117) (antibody, V domains shown)
VH: HEQLVEAGGGVVQPGGSLRLSCLASGFTFHKYGMHWVRQAPGKGLEWVALISDDGMRKYHSDSMWGRVTISRDNSKNTLYLQFSSLRVEDTAMFFCAREAGGPIWHDDVKYYDFNDGYYNYHYMDVWGKGTKVTVSS
VL: QSALTQPASVSGSPGQTITISCNGTSRDVGGFDSVSWYQQSPGKAPKVMVFDVSHRPSGMSNRFSGSKSGNTASLTISGLHIEDEGDYFCSSLTDRSHRIFGGGTKLTVLG
In the case of B4, the IC50, TZM-bl pseudovirus neutralization is more than 25 µg/mL in experiment [1]; less than 0.01 µg/mL with HIV-1 CAP45 Env (HIV-1); more than 1 µg/mL in [2]; 3.05 µg/mL with HIV-1 TR0.11 Env (HIV-1); less than 0.01 µg/mL in the experiment with HIV-1 Du172 Env (HIV-1); more than 1 µg/mL in experiment [3]. Moreover, the IC50, TZM-bl pseudovirus neutralization in the experiment with HIV-1 ADA Env (HIV-1) was 5 ng/mL; in the experiment with HIV-1 DU156 Env (HIV-1), less than 0.01 µg/mL; in the experiment with HIV-1 ZM233 Env (HIV-1) it was less than 0.01 µg/mL; in the experiment with HIV-1 CAAN Env (HIV-1), 10.6 µg/mL; with HIV-1 ZM249 Env (HIV-1) it was less than 0.01 µg/mL; with HIV-1 ZM214 Env (HIV-1), more than 25 µg/mL. The IC50, TZM-bl pseudovirus neutralization in [4] turned out to be 2.08 µg/mL; in experiment [5] it was 3 ng/mL; in the experiment with HIV-1 PVO.4 Env (HIV-1), 10.4 µg/mL; in experiment [6] it was 1 ng/mL; in experiment [7], 0.05 µg/mL; with HIV-1 DU422 Env (HIV-1) it was 0.36 µg/mL. Besides, the IC50, TZM-bl pseudovirus neutralization (in [8]; with HIV-1 AC10 Env (HIV-1)) was less than 0.01 µg/mL throughout.

For the origin of these results see US20160264649A1.
